From patent US20210105983A1

Assays:
[1] = target: humanized PD-L1 polypeptide (human portion and endogenous mouse portion) on T cells of mice homozygous for the humanized CD274 gene of Example 1 (human; mouse) (UniProt Q9NZQ7); assay: flow cytometry, CD4+ T cells (CD3+CD4+) from spleen of humanized CD274 mouse, isotype control in α-hPD-L1 column
[2] = target: mouse PD-L1 polypeptide on T cells of wild-type mice (mouse) (UniProt Q9EP73); assay: flow cytometry, CD8+ T cells from spleen of wild-type mouse, isotype control in α-hPD-L1 column
Sequence of UniProt Q9EP73 (Q9EP73 19-290): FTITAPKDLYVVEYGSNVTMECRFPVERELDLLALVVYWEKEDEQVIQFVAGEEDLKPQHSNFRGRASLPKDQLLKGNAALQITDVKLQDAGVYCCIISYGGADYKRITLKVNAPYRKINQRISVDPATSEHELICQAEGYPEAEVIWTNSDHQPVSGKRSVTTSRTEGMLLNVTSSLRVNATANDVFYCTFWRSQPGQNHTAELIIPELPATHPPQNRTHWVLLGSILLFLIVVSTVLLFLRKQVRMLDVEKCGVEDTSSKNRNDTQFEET

[3] = target: mouse PD-L1 polypeptide on T cells of wild-type mice (mouse) (UniProt Q9EP73); assay: flow cytometry, CD4+ T cells from spleen of wild-type mouse, isotype control in α-hPD-L1 column
[4] = target: humanized PD-L1 polypeptide (human portion and endogenous mouse portion) on T cells of mice homozygous for the humanized CD274 gene of Example 1 (human; mouse) (UniProt Q9NZQ7); assay: flow cytometry, CD8+ T cells (CD3+CD8+) from spleen of humanized CD274 mouse, isotype control in α-hPD-L1 column
[5] = target: mouse PD-L1 polypeptide on T cells of wild-type mice (mouse) (UniProt Q9EP73); assay: flow cytometry, CD8+ T cells from spleen of wild-type mouse, isotype control in α-mPD-L1 column
[6] = target: mouse PD-L1 polypeptide on T cells of wild-type mice (mouse) (UniProt Q9EP73); assay: flow cytometry, CD4+ T cells from spleen of wild-type mouse, isotype control in α-mPD-L1 column
[7] = target: humanized PD-L1 polypeptide (human portion and endogenous mouse portion) on T cells of mice homozygous for the humanized CD274 gene of Example 1 (human; mouse) (UniProt Q9NZQ7); assay: flow cytometry, CD8+ T cells (CD3+CD8+) from spleen of humanized CD274 mouse, isotype control in α-mPD-L1 column
[8] = target: humanized PD-L1 polypeptide (human portion and endogenous mouse portion) on T cells of mice homozygous for the humanized CD274 gene of Example 1 (human; mouse) (UniProt Q9NZQ7); assay: flow cytometry, CD4+ T cells (CD3+CD4+) from spleen of humanized CD274 mouse, isotype control in α-mPD-L1 column
[9] = target: mouse PD-L1 polypeptide on T cells of wild-type mice (mouse) (UniProt Q9EP73); assay: flow cytometry, CD4+ T cells from spleen of wild-type mouse, stimulated with anti-CD3/anti-CD28 for 72 hours
[10] = target: humanized PD-L1 polypeptide (human portion and endogenous mouse portion) on T cells of mice homozygous for the humanized CD274 gene of Example 1 (human; mouse) (UniProt Q9NZQ7); assay: flow cytometry, CD4+ T cells from spleen of humanized CD274 mouse, stimulated with anti-CD3/anti-CD28 for 72 hours
[11] = target: mouse PD-L1 polypeptide on T cells of wild-type mice (mouse) (UniProt Q9EP73); assay: flow cytometry, CD4+ T cells from spleen of wild-type mouse, unstimulated
[12] = target: humanized PD-L1 polypeptide (human portion and endogenous mouse portion) on T cells of mice homozygous for the humanized CD274 gene of Example 1 (human; mouse) (UniProt Q9NZQ7); assay: flow cytometry, CD8+ T cells from spleen of humanized CD274 mouse, unstimulated
[13] = target: mouse PD-L1 polypeptide on T cells of wild-type mice (mouse) (UniProt Q9EP73); assay: flow cytometry, CD8+ T cells from spleen of wild-type mouse, stimulated with anti-CD3/anti-CD28 for 72 hours
[14] = target: humanized PD-L1 polypeptide (human portion and endogenous mouse portion) on T cells of mice homozygous for the humanized CD274 gene of Example 1 (human; mouse) (UniProt Q9NZQ7); assay: flow cytometry, CD4+ T cells from spleen of humanized CD274 mouse, unstimulated
[15] = target: mouse PD-L1 polypeptide on T cells of wild-type mice (mouse) (UniProt Q9EP73); assay: flow cytometry, CD8+ T cells from spleen of wild-type mouse, unstimulated
[16] = target: humanized PD-L1 polypeptide (human portion and endogenous mouse portion) on T cells of mice homozygous for the humanized CD274 gene of Example 1 (human; mouse) (UniProt Q9NZQ7); assay: flow cytometry, CD8+ T cells from spleen of humanized CD274 mouse, stimulated with anti-CD3/anti-CD28 for 72 hours

Sequence of UniProt Q9NZQ7 (Q9NZQ7 other isoform, or with tags, fused parts or gaps limits assumed): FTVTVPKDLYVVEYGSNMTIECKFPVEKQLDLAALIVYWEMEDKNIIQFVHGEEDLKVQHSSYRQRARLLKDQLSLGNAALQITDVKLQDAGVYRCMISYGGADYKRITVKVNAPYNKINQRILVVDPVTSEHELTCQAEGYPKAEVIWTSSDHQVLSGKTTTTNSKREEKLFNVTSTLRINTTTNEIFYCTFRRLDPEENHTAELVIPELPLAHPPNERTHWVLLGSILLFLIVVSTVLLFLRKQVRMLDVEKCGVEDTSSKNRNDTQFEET

## Isotype control (α-hPD-L1 columns of Table 5) (antibody)
[1]
  Mean Fluorescence Intensity: -55
[2]
  Mean Fluorescence Intensity: 64
[3]
  Mean Fluorescence Intensity: -58
[4]
  Mean Fluorescence Intensity: 78

## Isotype control (α-mPD-L1 columns of Table 5) (antibody)
[5]
  Mean Fluorescence Intensity: 64
[6]
  Mean Fluorescence Intensity: -39
[7]
  Mean Fluorescence Intensity: 84
[8]
  Mean Fluorescence Intensity: -52

## anti-human PD-L1 antibody, clone MIH1 (BD Biosciences)
[9]
  Mean Fluorescence Intensity: 22
[10]
  Mean Fluorescence Intensity: 457
[11]
  Mean Fluorescence Intensity: -45
[12]
  Mean Fluorescence Intensity: 271
[13]
  Mean Fluorescence Intensity: 113
[14]
  Mean Fluorescence Intensity: 114
[15]
  Mean Fluorescence Intensity: 62
[16]
  Mean Fluorescence Intensity: 384

## anti-mouse PD-L1 antibody, clone 10F.9G2 (eBioscience)
[9]
  Mean Fluorescence Intensity: 2800
[10]
  Mean Fluorescence Intensity: 155
[11]
  Mean Fluorescence Intensity: 538
[12]
  Mean Fluorescence Intensity: 160
[13]
  Mean Fluorescence Intensity: 3170
[14]
  Mean Fluorescence Intensity: 61
[15]
  Mean Fluorescence Intensity: 712
[16]
  Mean Fluorescence Intensity: 276
